The values that follow are results of earlier work, collected in article PMC4741949.

In this series the target is EGFR wild-type (human) (UniProt P00533). The note with it: 2'F-pyrimidines (2'F-C, 2'F-U), RT-qPCR: 15 min 37 C, 100 ug/ml polyinosine, DPBS washes, flow cytometry: DPBS, 30 min, confocal: DMEM without FBS, UV cross-linking buffer not given. For orientation: Real-time PCR tracks product formation cycle by cycle.

“GCCUUAGUAACGUGCUUUGAUGUCGAUUCGACAGGAGGC [CL4]”: the Kd (as a rule, a measure of binding affinity in units of concentration) was 10 nM.
